Assay results taken from patent US20140271653A1.

Assays:
Test in all cases: cell-based or functional assay
[1] = target: RSV-F of RSV subtype A clinical isolate A1997/12-35 (respiratory syncytial virus subtype A, clinical isolate A1997/12-35)
[2] = target: RSV-F of RSV subtype A clinical isolate A1998/12-21 (respiratory syncytial virus subtype A, clinical isolate A1998/12-21)
[3] = target: RSV-F of RSV subtype A clinical isolate A1998/3-2 (respiratory syncytial virus subtype A, clinical isolate A1998/3-2)
[4] = target: RSV-F of RSV subtype A clinical isolate A2000/3-4 (respiratory syncytial virus subtype A, clinical isolate A2000/3-4)
[5] = target: RSV-F of RSV subtype A clinical isolate A2001/2-20 (respiratory syncytial virus subtype A, clinical isolate A2001/2-20)
[6] = target: RSV-F of RSV subtype A clinical isolate A2001/3-12 (respiratory syncytial virus subtype A, clinical isolate A2001/3-12)
[7] = target: RSV-F of RSV subtype A strain A2 (1540) (respiratory syncytial virus subtype A, strain A2 (1540)) (UniProt P03420)
[8] = target: RSV-F of RSV subtype A strain Long (respiratory syncytial virus subtype A, strain Long) (UniProt P12568)
[9] = target: RSV-F of RSV subtype B strain 1400 (respiratory syncytial virus subtype B, strain 1400)
[10] = target: RSV-F of RSV subtype B strain 18537 (respiratory syncytial virus subtype B, strain 18537) (UniProt P13843)
[11] = target: RSV-F of RSV subtype B strain 1A2 (respiratory syncytial virus subtype B, strain 1A2)
[12] = target: RSV-F of RSV subtype B strain 9320 (respiratory syncytial virus subtype B, strain 9320)

Sequence of Control III (AM-22) (antibody) (VH): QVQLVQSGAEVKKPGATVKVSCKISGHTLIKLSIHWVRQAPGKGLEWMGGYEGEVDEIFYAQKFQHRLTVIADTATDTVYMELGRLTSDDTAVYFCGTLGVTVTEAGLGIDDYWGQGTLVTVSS
Sequence of Control III (AM-22) (antibody) (VL): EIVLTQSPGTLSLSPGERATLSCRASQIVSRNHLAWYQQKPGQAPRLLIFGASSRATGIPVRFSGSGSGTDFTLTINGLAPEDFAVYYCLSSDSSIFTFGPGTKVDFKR
Sequence of RSV-F of RSV subtype B strain 18537 (respiratory syncytial virus subtype B, strain 18537) (P13843 26-574): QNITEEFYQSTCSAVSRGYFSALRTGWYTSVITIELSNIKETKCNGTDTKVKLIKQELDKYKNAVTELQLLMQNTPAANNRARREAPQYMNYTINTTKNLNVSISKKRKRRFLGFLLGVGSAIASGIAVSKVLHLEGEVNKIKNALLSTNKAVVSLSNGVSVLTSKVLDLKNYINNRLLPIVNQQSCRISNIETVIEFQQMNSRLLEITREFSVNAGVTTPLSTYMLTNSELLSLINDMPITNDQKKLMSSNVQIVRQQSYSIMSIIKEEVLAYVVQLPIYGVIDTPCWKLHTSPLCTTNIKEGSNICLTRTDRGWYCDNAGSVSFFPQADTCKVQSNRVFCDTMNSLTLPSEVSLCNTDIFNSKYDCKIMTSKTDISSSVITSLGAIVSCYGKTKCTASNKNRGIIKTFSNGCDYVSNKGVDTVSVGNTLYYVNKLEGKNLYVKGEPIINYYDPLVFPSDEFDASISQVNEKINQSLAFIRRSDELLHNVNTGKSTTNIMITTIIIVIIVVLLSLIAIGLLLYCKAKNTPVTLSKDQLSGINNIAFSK
Sequence of RSV-F of RSV subtype A strain Long (respiratory syncytial virus subtype A, strain Long) (P12568 26-574): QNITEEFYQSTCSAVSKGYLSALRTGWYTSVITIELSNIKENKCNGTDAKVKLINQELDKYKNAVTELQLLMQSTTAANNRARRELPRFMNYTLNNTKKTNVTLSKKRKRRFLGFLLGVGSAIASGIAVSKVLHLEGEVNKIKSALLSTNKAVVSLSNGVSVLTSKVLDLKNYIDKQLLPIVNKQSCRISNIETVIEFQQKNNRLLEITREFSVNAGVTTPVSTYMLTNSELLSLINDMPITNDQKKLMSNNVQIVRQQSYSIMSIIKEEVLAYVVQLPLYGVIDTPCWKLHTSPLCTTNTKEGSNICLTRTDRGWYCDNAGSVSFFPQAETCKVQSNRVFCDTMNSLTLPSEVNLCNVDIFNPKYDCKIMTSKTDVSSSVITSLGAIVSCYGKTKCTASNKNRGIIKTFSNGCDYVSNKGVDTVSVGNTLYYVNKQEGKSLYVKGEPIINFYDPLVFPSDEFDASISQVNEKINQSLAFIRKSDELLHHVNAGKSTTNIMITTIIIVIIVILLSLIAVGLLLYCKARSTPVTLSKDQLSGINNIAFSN
Sequence of RSV-F of RSV subtype A strain A2 (1540) (respiratory syncytial virus subtype A, strain A2 (1540)) (P03420 26-574): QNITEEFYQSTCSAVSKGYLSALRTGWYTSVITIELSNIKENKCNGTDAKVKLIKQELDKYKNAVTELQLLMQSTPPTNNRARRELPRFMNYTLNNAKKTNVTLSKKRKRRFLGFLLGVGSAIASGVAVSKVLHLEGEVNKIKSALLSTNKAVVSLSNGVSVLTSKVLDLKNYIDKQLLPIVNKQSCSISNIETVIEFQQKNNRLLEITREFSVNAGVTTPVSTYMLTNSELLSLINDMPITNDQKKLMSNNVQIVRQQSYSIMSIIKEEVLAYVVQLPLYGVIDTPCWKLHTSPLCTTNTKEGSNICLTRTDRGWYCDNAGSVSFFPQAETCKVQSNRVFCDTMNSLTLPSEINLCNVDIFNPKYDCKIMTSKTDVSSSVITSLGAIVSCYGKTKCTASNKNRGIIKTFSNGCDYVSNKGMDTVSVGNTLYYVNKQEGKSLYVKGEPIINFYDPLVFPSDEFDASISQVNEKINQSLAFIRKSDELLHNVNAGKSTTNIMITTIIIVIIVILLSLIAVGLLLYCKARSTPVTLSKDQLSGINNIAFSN

Control III (AM-22) (antibody)
IC50 (pM), RSV micro-neutralization, clinical isolate [1]: 20 pM
IC50 (pM), RSV micro-neutralization, clinical isolate [2]: 43 pM
IC50 (pM), RSV micro-neutralization, clinical isolate [3]: 31 pM
IC50 (pM), RSV micro-neutralization, clinical isolate [4]: 55 pM
IC50 (pM), RSV micro-neutralization, clinical isolate [5]: 72 pM
IC50 (pM), RSV micro-neutralization, clinical isolate [6]: 60 pM
IC50 (pM), RSV micro-neutralization, A/A2 [7]: 91 pM
IC50 (pM), RSV micro-neutralization, A/Long [8]: 86 pM
IC50 (pM), RSV micro-neutralization, B/1400 [9]: 190 pM
IC50 (pM), RSV micro-neutralization, B/18537 [10]: 660 pM
IC50 (pM), RSV micro-neutralization, B/1A2 [11]: 580 pM
IC50 (pM), RSV micro-neutralization, B/9320 [12]: 2510 pM
